{"source": "patent JP2005185281A", "molecules": {"B1": {"name": "クローン126 (015-126 pIII:抗HER2抗体、ファージpIII融合scFv型抗体) (scFv, part only; not given: CL and pIII fusion parts, part only)", "scFv, part": "QVQLVQSGAEVKKPGESLKISCKGSGYSFTSYWIGWVRQMPGKGLEWMGIIYPGDSDTRYSPSFQGQVTISADKSISTAYLQWSSLKASDTAMYYCARLTLSYSSSWFDYWGQGTLVTVSSQTVVTQEPSFSVSPGGTVTLTCGLSSGSVSTSYYPSWYQQTPGQAPRTLIYSTNTRSSGVPDRFSGSILGNKAALTITGAQADDESDYYCVLYMGSGISVFGGGTKLTVL"}}, "key": {"[1]": {"target": "SKOv-3膜タンパク (可溶性分画、ダイナビーズ結合)", "assay": "phage recovery: Dynabeads with 10 ug SKOv-3 membrane protein + 1x10^8 cfu phage"}, "[2]": {"target": "SKOv-3細胞 (卵巣癌細胞株) の細胞表面抗原", "assay": "phage recovery: 1x10^7 phage + 1x10^7 SKOv-3 cells, 3 spins through solution (1) 1%BSA-MEM; colonies counted"}, "[3]": {"target": "SKOv-3細胞 (卵巣癌細胞株) の細胞表面抗原", "assay": "phage recovery: 1x10^7 phage + 1x10^7 SKOv-3 cells, 4C 4 h, 3 spins through solution (1) 1%BSA-MEM; colonies counted"}, "[4]": {"target": "SKOv-3細胞 (卵巣癌細胞株) の細胞表面抗原", "assay": "phage recovery: 1x10^7 phage + 1x10^7 SKOv-3 cells, 3 spins through solution (2) Ficoll-Paque diluted 4-fold in PBS; colonies counted"}, "[5]": {"target": "SKOv-3細胞 (卵巣癌細胞株) の細胞表面抗原", "assay": "phage recovery: 1x10^7 phage + 1x10^7 SKOv-3 cells, 4C 4 h, 3 spins through solution (2) Diphenyl Ether:1.1.1-Trichloroethane:Hexane=44:27:33; colonies counted"}, "[6]": {"target": "SKOv-3細胞 (卵巣癌細胞株) の細胞表面抗原", "assay": "phage recovery: 1x10^7 phage + 1x10^7 SKOv-3 cells, 4C 4 h, 3 spins through solution (3) Isopropyl Ether:1.1.1-Trichloroethane:Hexane=20:50:30; colonies counted"}, "[7]": {"target": "SKOv-3膜タンパク (可溶性分画、ダイナビーズ結合)", "assay": "phage recovery on SKOv-3 membrane protein beads with 400 ug free HeLa membrane protein present"}, "[8]": {"target": "SKOv-3膜タンパク (可溶性分画、ダイナビーズ結合)", "assay": "phage recovery on SKOv-3 membrane protein beads with 400 ug free SKOv-3 membrane protein as competitor"}, "[9]": {"target": "SKOv-3膜タンパク (可溶性分画、ダイナビーズ結合)", "assay": "phage recovery on SKOv-3 membrane protein beads with 400 ug free SKOv-3 membrane protein against recovery without it"}}, "data": [{"molecule": "pAALSC3-D1.3HL 抗HEL(hen egg lysozyme)抗体ファージ (scFv)", "values": [{"measurement": "回収されたファージ (cfu)", "setting": "[1]", "result": 11, "unit": "cfu"}, {"measurement": "回収されたファージの数", "setting": "[2]", "result": "1040 ファージ数"}, {"measurement": "回収されたファージの数", "setting": "[3]", "result": "308 ファージ数"}, {"measurement": "回収されたファージの数", "setting": "[4]", "result": "1040 ファージ数"}, {"measurement": "回収されたファージの数", "setting": "[5]", "result": "176 ファージ数"}, {"measurement": "回収されたファージの数", "setting": "[6]", "result": "198 ファージ数"}]}, {"molecule": "B1", "values": [{"measurement": "回収されたファージ (cfu)", "setting": "[1]", "result": 87000, "unit": "cfu"}, {"measurement": "回収されたファージ (cfu)", "setting": "[7]", "result": 50000, "unit": "cfu"}, {"measurement": "回収されたファージ (cfu)", "setting": "[8]", "result": 2200, "unit": "cfu"}, {"measurement": "回収の変化 (遊離SKOv-3膜タンパク共存 / 非共存)", "setting": "[9]", "result": 0.025, "unit": "fold"}]}]}
